Molecular target: human membrane attack complex (MAC), C5b-9 complex (human) (UniProt P01031)
Test: cell-based or functional assay

B1: human CD59, glycosylphosphatidylinositol (GPI)-anchored membrane protein (protein, UniProt P13987 26-102, looked up)
chain: LQCYNCPNPTADCKTAVNCSSDFDACLITKAGLQVYNKCWKFEHCNFNDVTTRLRENELTYYCCKKDLCNFNEQLEN
modifications: GPI anchor at Asparagine 77 (mature numbering)
- complement mediated cell lysis (PI uptake, FACS; hepa-1c1c7 cells, 1000 vp/cell AdCAGCD59, 1% NHS): 12.3%
- fold reduction of complement mediated cell lysis: 8 fold
- inhibition of cell lysis at 250 vp/cell of AdCAGCD59: > 50%
- inhibition of cell lysis at 500 vp/cell of AdCAGCD59: > 70%
- reduction in MAC immunofluorescence intensity on corneal endothelium: 86%
- reduction in MAC immunofluorescence on eyecups at 7.5 min NHS treatment: 68%
- reduction in MAC immunofluorescence on eyecups at 15 min NHS treatment: 56%
- reduction in mean MAC immunofluorescence intensity on RPE of eyecup tissues: 55%

Reference: patent US20110015136A1
